Test results from publication PMC9791040, “CtrA activates the expression of glutathione S-transferase conferring oxidative stress resistance to Ehrlichia chaffeensis” (Frontiers in Cellular and Infection Microbiology, 2022).

Tests used:
[1] = system: T1, GST-rCtrA (Ehrlichia chaffeensis), ORF:1c7d897d; assay: EMSA
T1 sequence: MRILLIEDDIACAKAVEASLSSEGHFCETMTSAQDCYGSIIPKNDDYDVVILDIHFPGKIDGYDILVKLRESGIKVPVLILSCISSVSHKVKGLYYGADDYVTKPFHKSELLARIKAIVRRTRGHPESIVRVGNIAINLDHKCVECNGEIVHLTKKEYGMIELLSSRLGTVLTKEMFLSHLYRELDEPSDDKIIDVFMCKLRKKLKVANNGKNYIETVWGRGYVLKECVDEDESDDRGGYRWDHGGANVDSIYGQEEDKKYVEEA

NCC(=O)O = assay: inorganic phosphate formation, ascorbic acid-molybdate, OD750; assay type: biochemical, Ehrlichia chaffeensis; conditions: 10 mM Na3ATP, 5 mM gamma-glutamylcysteine, 20 mM MgCl2, 50 mM KCl, 2 mM EDTA, 2.5 mM DTT, 100 mM Tris-HCl pH 8.2, 37°C, 30 min
Text: inorganic phosphate formation, ascorbic acid-molybdate, OD750 on rGshB (E. chaffeensis GshB)

[2] = substrate: N[C@@H](CCC(=O)O)C(=O)O; assay: as above; assay type: biochemical, Ehrlichia chaffeensis; conditions: 5 mM ATP, 10 mM L-alpha-aminobutyric acid, 20 mM MgCl2, 50 mM KCl, 2 mM EDTA, 100 mM Tris-HCl pH 8.0, 37°C, 30 min
Text: inorganic phosphate formation, ascorbic acid-molybdate, OD750 on SUMO-rGshA (E. chaffeensis GshA)

Q: For “ATATAACCTAATAGTGACAAATAAATTAACAATAGTAGAAGTGTCATATAAAAGCAAGTCAGAATATAAATTTTTGTATAAAATATCGGTAACTTTTGTAAGGAAAATTTAATATATTACGTCAGGTAAGTAATAGCAAAAAAACTGGTTAAGTATAGTATCATGTGTAAAGGTGAGAAAAACAGCACTTATAAACTAGTCCCCCCCCCCCCCCTCTTATTGCTACATTCTTTTGCCACTATTTTTATTTACCTGCAGCA (double strand) [p28 promoter probe, 260 bp]”, which binding [1] is on record?
A: no binding

Q: What does the source list for “rGshB (E. chaffeensis GshB) (Ehrlichia chaffeensis str. Arkansas)”?
A: Km (NCC(=O)O): 940 ± 320 µM; Vmax (NCC(=O)O): 0.63 µmol/min/mg

B1: SUMO-rGshA (E. chaffeensis GshA) (Ehrlichia chaffeensis str. Arkansas) (protein)
chain: MTVIIDTLNDILTKYKLDIENWFFNKFTKYNPVLNISVDLRVSDYKIAPVDTNIFPAGYNNFTEQSQIYASRLLREYVVNYANCSKILIIAENHTRNLKYIDSLIVLKNIVNNAGFVVEVGICNINQNIELISSTGRVINCLCLTNDNGVLRAGCRFIPDLILVNNDMTSGIPEVLQGLKYQSIMPSLFLGWFNRSKSNHFSIYKKLSKEFCESFNIDPWLISAFFSSCSNICFFNSQGIDDIANEVDVVISKIRNKFQLYSIKEQPYVFVKADNGTYGMGILVAYCGDDILMLNRKKRNKMKKIKDGNVVSSVIIQEGITTREIFNGYVAEPLVYFIGHTPSCYLYRYHSVKDRFSNLNSVGCDFIDISYKQQDILYWNIIGKIAVLAAAIEMHEISNVNVMEQNCLLS
notes: tag kept
Q: Which Km [2] does the source give for B1 here?
A: 1030 ± 20 µM

Q: And the Vmax [2]?
A: 0.52 µmol/min/mg
